{"source": "paper PMC9253516", "about": "(2022)", "target": "Survivin full length (UniProt O15392 1-142)", "sequence (O15392 whole entry)": "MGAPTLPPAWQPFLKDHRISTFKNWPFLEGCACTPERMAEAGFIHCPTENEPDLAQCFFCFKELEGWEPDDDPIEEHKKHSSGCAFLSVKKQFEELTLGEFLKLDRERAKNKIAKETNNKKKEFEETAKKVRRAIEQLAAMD", "experiment": "ITC", "data": [{"binder": "AKER", "note": "[Sgo1_(AKER) peptide]", "values": [{"measurement": "Kd", "value": 11.6, "unit": "µM"}]}]}
